Experimental data reported in US9688764B2, “Methods of treating breast cancer by administering anti-human prolactin receptor (PRLR) antibodies” (REGENERON PHARMACEUTICALS, INC., priority 2013, dated 2017).

Key:
[1] = target: T1, hPRLR.mmh (soluble monomeric human PRLR) (Homo sapiens, UniProt P16471); assay: Surface plasmon resonance (Biacore T200), mAb-capture format; type: binding; details: antibody-capture format, analyte hPRLR.mmh
T1 construct: soluble monomeric (hPRLR.mmh); mmh (myc-myc-hexahistidine)
T1 sequence (P16471 with tags, fused parts or gaps): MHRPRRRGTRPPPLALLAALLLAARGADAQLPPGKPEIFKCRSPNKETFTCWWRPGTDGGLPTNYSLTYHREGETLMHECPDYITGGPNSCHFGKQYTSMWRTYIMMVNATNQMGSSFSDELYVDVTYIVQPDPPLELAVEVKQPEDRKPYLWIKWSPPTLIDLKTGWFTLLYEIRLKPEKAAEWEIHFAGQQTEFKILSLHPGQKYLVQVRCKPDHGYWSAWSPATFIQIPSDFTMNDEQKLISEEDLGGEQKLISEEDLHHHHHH
Method in brief: (§1)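 Antibodies (human IgG1 Fc) captured on anti-human Fc surface; monomeric hPRLR.mmh or mfPRLR.mmh, or dimeric hPRLR.mFc, injected as analyte on Biacore T200. ka and kd from 1:1 binding model fit.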

[2] = target: mfPRLR.mmh (monomeric macaca fascicularis PRLR); assay: as above; type: binding; details: antibody-capture format, analyte mfPRLR.mmh
Sequence of mfPRLR.mmh (monomeric macaca fascicularis PRLR) (as listed by the source): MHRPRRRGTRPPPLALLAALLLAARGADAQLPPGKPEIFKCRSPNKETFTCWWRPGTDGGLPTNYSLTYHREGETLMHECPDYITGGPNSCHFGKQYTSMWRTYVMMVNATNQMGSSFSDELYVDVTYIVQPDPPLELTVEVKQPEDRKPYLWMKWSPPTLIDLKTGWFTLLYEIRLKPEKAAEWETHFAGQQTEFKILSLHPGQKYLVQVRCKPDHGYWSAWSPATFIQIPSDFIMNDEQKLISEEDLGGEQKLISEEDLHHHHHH
Method in brief: as §1

[3] = target: T2, hPRLR.mFc (soluble dimeric human PRLR) (Homo sapiens, UniProt P16471); assay: as above; type: binding; details: antibody-capture format, analyte hPRLR.mFc
T2 construct: dimeric (hPRLR.mFc)
T2 sequence (P16471 with tags, fused parts or gaps): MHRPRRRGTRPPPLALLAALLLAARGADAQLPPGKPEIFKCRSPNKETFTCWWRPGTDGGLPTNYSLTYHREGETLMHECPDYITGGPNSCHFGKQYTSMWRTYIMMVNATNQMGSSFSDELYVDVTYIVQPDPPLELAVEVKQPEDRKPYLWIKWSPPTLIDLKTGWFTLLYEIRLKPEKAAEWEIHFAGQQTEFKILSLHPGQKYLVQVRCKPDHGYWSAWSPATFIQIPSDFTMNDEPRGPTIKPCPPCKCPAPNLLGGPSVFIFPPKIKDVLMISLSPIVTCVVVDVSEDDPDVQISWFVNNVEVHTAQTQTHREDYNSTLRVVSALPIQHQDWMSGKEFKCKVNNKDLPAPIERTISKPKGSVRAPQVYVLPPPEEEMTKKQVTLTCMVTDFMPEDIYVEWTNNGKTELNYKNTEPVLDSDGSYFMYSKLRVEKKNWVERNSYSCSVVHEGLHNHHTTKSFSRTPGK
Method in brief: as §1

PC3/PRLR tumors = assay: Tumor growth inhibition in xenograft-bearing mice; type: in vivo, SCID mice; details: for Average Tumor Growth Inhibition (%): SCID mice; for effect on PC3/PRLR tumor growth: multi-dose, especially at 15 mg/kg
Source text: Briefly, 20×10^6 MCF7/PRLR cells (ATCC HTB-22 transfected with full length hPRLR as previously described) were implanted subcutaneously into the left mammary fat pad of female NCr nude mice. In other studies, 10×10^6 PC3/PRLR (ATCC CRL-1435 transfected with full length hPRLR as previously described) were implanted subcutaneously into the left flank of male SCID mice. Additionally, 10×10^6 parental T47D (ATCC HTB-133) or […] T47D#11 cells (ATCC HTB-133 serially passaged in vivo as described below) were subcutaneously implanted into the left flank of female CB17 SCID mice. All mice were obtained from Taconic (Hudson, N.Y.). Each bolus of cells was supplemented with a 90-day estrogen release pellet (1.7 mg/pellet; Innovative Research America, Sarasota Fla.). Once tumors had reached an average volume of 250 mm^3, mice were randomized into groups of seven and dosed with anti-PRLR antibody-drug conjugates of the invention or control reagents. Control reagents included PBS vehicle, free methyl-disulfide DM1 (DM1-SMe) and isotype Control 1-DM1.
In multi-dose studies, mice were dosed once a week for a total of three weeks with tumor volumes and body weights being monitored twice weekly throughout the study. Test ADCs were dosed at 5 and/or 15 mg/kg in the multi-dose studies. In single-dose studies, mice received a single dose of test ADC, and tumor volumes and body weights were monitored twice weekly throughout the study. Test ADCs were dosed at 1, 2.5, 5, and 15 mg/kg in the single-dose studies. Average tumor size as well as tumor growth inhibition relative to the vehicle treated group were calculated for each group. Tumors were measured with calipers twice a week until the average size of the vehicle group reached 1000 mm^3. Tumor size was calculated using the formula (length×width^2)/2. Tumor growth inhibition was calculated according to the following formula: (1−((Tfinal−Tinitial)/(Cfinal−Cinitial)))*100, where T (treated group) and C (control group) represent the mean tumor mass on the day the vehicle group reached 1000 mm^3. […] Results are summarized in Tables 21-25 (multi-dose) and Table 26 (single dose). (NT=not tested in the particular experiment shown).

[4] = target: T3, PRLR-expressing cells (T47D) (Homo sapiens, UniProt P16471); assay: Antibody binding and internalization by PRLR-expressing cells (imaging); type: cell-based; details: [mAb] (0.67 nM); for % Internalization relative to Control I: alexa488 intensity in intracellular vesicles, 1 h at 37° C.; for % Total Binding relative to Control I: whole cell alexa488 intensity at 37° C.
T3 construct: a native PRLR expressing cell line (T47D); endogenous in cells; host or cells: T47D
T3 sequence (P16471 25-622): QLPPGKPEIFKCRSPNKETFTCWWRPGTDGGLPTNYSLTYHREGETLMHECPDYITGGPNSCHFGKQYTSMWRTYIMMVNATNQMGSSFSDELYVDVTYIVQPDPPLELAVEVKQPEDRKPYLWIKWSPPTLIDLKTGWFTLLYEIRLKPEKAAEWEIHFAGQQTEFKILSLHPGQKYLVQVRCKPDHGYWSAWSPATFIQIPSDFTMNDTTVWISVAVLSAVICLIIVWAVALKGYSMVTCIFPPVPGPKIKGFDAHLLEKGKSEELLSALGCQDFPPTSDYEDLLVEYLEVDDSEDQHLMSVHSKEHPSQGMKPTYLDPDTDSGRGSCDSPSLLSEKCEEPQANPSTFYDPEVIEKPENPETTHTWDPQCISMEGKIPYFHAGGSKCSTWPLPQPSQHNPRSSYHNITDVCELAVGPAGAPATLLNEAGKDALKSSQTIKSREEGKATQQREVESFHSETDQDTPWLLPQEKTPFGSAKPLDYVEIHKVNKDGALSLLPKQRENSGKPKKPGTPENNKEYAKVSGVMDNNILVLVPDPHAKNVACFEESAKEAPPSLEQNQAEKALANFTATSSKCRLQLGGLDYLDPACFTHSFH

MCF7/PRLR tumors = assay: Tumor growth inhibition in xenograft-bearing mice; type: in vivo, NCr nude mice; details: for effect on MCF7/PRLR tumor growth: multi-dose trial 1, 5 and 15 mg/kg
Method in brief: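 Subcutaneous xenografts: MCF7/PRLR in mammary fat pad of female NCr nude mice, PC3/PRLR in flank of male SCID, T47D#11 in flank of female CB17 SCID, each with estrogen pellet. At 250 mm^3, anti-PRLR ADCs given weekly ×3 (5 and/or 15 mg/kg) or once (1–15 mg/kg); caliper volumes twice weekly, TGI versus vehicle when vehicle reached 1000 mm^3.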

B1: H1H6765P: anti-PRLR antibody, human IgG1 Fc; HCVR/LCVR SEQ ID NOs 18/26 (antibody, V domains shown)
VH: EVQLVESGGGVVRPGGSLRLSCVGSGFSFDDHGMNWVRQGPGKGLEWVSGFNWNGGSTNYAESVKGRFTISRDNARNSLFLQMNSLRAEDTALYYCVRGRSGWFNDAFDVWGPGTMVTVSS
VL: EIVLTQSPGTLSLSPGERATLSCRASQTINSNYLAWYRQKPGQTPRLLIYGTSSRATGIPDRFSGSGSGTDFSLTISRLEPEDFAVFYCQQYAGLPTFGPGTKVDIK
modifications: human IgG1 Fc
[1]; 25° C.
  Kd: 0.124 nM
  T½: 1.7 h
[1]; 37° C.
  Kd: 0.292 nM
  T½: 0.533 h
[2]; 25° C.
  Kd: 0.254 nM
  T½: 1.43 h
[2]; 37° C.
  Kd: 0.0504 nM
  T½: 3.58 h
[3]; 25° C.
  Kd: 0.0392 nM
  T½: 5.65 h
[3]; 37° C.
  Kd: 0.128 nM
  T½: 1.87 h
PC3/PRLR tumors; PC3/PRLR tumors TRIAL #2, multi-dose 15 mg/kg, Day 55
  Average Tumor Growth Inhibition (%): 1%
[4]
  % Internalization relative to Control I: 186.3%
  % Total Binding relative to Control I: 191.3%

B2: H1H6958N2-DM1: anti-PRLR antibody H1H6958N2 conjugated to DM1 through an SMCC linker (conjugate)
VH: QVQLVESGGGVVQPGRSLRLSCGASGFTFRNYGMQWVRQGPGKGLEWVTLISFDGNDKYYADSVKGRFTISRDNSKNTLFLQMNSLRTEDTAVYYCARGGDFDYWGQGTLVTVSS
VL: DIQMTQSPSSLSASVGDRVTITCRASQDIRKDLGWYQQKPGKAPKRLIYAASSLHSGVPSRFSGSGSGTEFTLTISSLQPEDFATYYCLQHNSYPMYTFGQGTKLEIK
MCF7/PRLR tumors
  effect on MCF7/PRLR tumor growth: potently inhibited MCF7/PRLR tumor growth
MCF7/PRLR tumors; single dose, 1 mg/kg
  effect on tumor volume relative to vehicle control tumors: significant decrease in tumor volume
MCF7/PRLR tumors; single dose, all doses above 1 mg/kg tested (2.5, 5, 15 mg/kg)
  tumor growth inhibition: > 100%
PC3/PRLR tumors; PC3/PRLR tumors TRIAL #1, multi-dose 5 mg/kg, Day 63
  Average Tumor Growth Inhibition (%): 5%
PC3/PRLR tumors
  effect on PC3/PRLR tumor growth: demonstrated inhibition of tumor growth

B3: H1H6953N-DM1 (conjugate)
VH: EVQLLESGGGLVQPGGTLRLSCAASGFTFSAYAMSWVRQAPGKGLEWVSSINVRAGDTYYADSVKGRFTISRDNSKNTLFLLMNSLRAEDTAAYYCAKARYSSNWGFDFWGQGTLVTVSS
VL: DIVMTQSPDSLTVSLGARTTINCQSSQTILHSSNNHNYLAWYQQKPGLPPKLLIYWSSTRESGVPDRFSGSGSGTDFTLTISSLQAEDVAIYYCQQYSNTPYTFGQGTKLEIN
MCF7/PRLR tumors
  effect on MCF7/PRLR tumor growth: potently inhibited MCF7/PRLR tumor growth
PC3/PRLR tumors
  effect on PC3/PRLR tumor growth: demonstrated inhibition of tumor growth

B4: H1H6953N: human IgG1 Fc form of H1M6953N; anti-PRLR; HCVR/LCVR SEQ ID NOs 274/282 (antibody, V domains shown)
VH: EVQLLESGGGLVQPGGTLRLSCAASGFTFSAYAMSWVRQAPGKGLEWVSSINVRAGDTYYADSVKGRFTISRDNSKNTLFLLMNSLRAEDTAAYYCAKARYSSNWGFDFWGQGTLVTVSS
VL: DIVMTQSPDSLTVSLGARTTINCQSSQTILHSSNNHNYLAWYQQKPGLPPKLLIYWSSTRESGVPDRFSGSGSGTDFTLTISSLQAEDVAIYYCQQYSNTPYTFGQGTKLEIN
modifications: human IgG1 Fc
MCF7/PRLR tumors; MCF7/PRLR tumors TRIAL #1, multi-dose 15 mg/kg, NCr Nude mice, Day 52
  Average Tumor Growth Inhibition (%): 79%
[1]; 25° C.
  Kd: 0.268 nM
  T½: 0.908 h
[1]; 37° C.
  Kd: 1.11 nM
  T½: 0.157 h
[2]; 25° C.
  Kd: 0.438 nM
  T½: 0.605 h
[2]; 37° C.
  Kd: 2.71 nM
  T½: 0.075 h
[3]; 25° C.
  Kd: 0.067 nM
  T½: 4.037 h
[3]; 37° C.
  Kd: 0.116 nM
  T½: 1.13 h
[4]
  % Internalization relative to Control I: 153.9%
  % Total Binding relative to Control I: 164.2%
